# Patent publication US8088892B2, “Inhibitors of proteins from the Rho-GEF family” (Centre National de la Recherche Scientifique (C.N.R.S.), priority 2002, dated 2012)
# “Also recorded” adds a separate entry of the source.
# Columns and labels:
# [1] = system: NGF-differentiated PC12 cells; test: LPA-induced neurite retraction; assay type: cell-based
# Description: FIG. 6B represents histograms quantifying the effects of GFP-TRIPα or GFP on LPA (lysophosphatidic acid) induced neurite retraction in NGF-differentiated PC12 cells. The X-axis represents the time after LPA addition in minutes and the Y-axis represents the percentage of transfected cells with neurites.
# Cells were transfected with GFP-TRIPα (white bars) or GFP (black bars) and differentiated with NGF (50 ng/ml). 10 μM LPA was added and neurite retraction was followed for 15 minutes. The number of transfected cells with neurites was counted from at least 200 cells in 3 independent experiments.
# Among the serum components known to trigger neurite retraction and cell rounding in neuronal cells is lysophosphatidic acid (LPA) (Moolenaar et al., 1997). Thus, a similar neurite retraction assay was performed, except that, instead of the serum-containing medium, LPA (10 μM, Sigma) was added to TRIPα transfected and differentiated PC12 cells (FIG. 6B).
# TrioGEFD1 = molecular target: T1, TrioGEFD1 (Homo sapiens, UniProt O75962); test: In vitro GEF assay on RhoG; assay type: biochemical; parameters: key to in vitro GEF assay (inhibition): +++^2 and +^2 represent respectively a full and a partial (see FIG. 3) inhibitory effect; +++^2 and +^2 represent respectively a full and a partial (see FIG. 3) inhibitory effect; −−^2 represents a lack of inhibitory effect; details: for Effect on TrioGEFD1 exchange activity on RhoG: 20-fold molar excess, TrioGEFD1 0.1 μM, RhoG 0.3 μM
# T1 construct: TrioGEFD1 (a.a. 1232-1629, 0.1 μM); made in house
# Description: To test the specificity of TRIAPα inhibition in vitro, exchange experiments were performed either on RhoA with different RhoA-specific GEFs: Trio GEFD2 (0.4 μM), Kalirin GEFD2 (KalGEFD2, 1.7 μM), p63RhoGEF (Souchet et al., 2002) (0.4 μM) and Lbc (amino acids 172-598; Zheng et al., 1995) (0.4 μM), or on RhoG, with the RhoG-specific GEF domain of Trio (TrioGEFD1, 0.1 μM). Exchange assays were performed with the recombinant GEFs as described in FIG. 2A. Different concentrations of RhoGEFs were used to yield a similar nucleotide exchange efficiency. For each exchange factor, three independent experiments were done in absence (black bar) or in the presence (grey bar) of a 20-fold molar excess of TRIAPα.
# An in vitro guanine nucleotide exchange (GEF) assay was used to test whether the TrioGEFD2-binding aptamers could inhibit the catalytic activity of TrioGEFD2 towards RhoA. For this purpose, the aptamers TRIAPα, TRIAPβ and TRIAPγ (including the Trx gene) were excised from pEG202 as EcoRI/NotI fragments and cloned into pGEX4T1 EcoRI/NotI. The aptamers were then expressed and purified from bacteria as GST fusion proteins, using standard procedures (Smith and Johnson, 1988). GTPase-GST fusion proteins were prepared, loaded with [^3H]GDP and the guanine nucleotide release assays were performed as described (Debant et al., 1996), using recombinant GST-TrioGEFD2 (a.a. 1848-2298), TrioDH2 (a.a. 1848-2096). For each point, 0.3 μM GTPase was mixed with or without 0.4 μM GEF in presence of non-labeled GTP, and the reaction mix was filtered after 0 min and 15 mm reaction at 25° C. The catalytic activity of TrioGEFD2 was thus measured by the decrease of the GTPase-associated radioactivity. The results are expressed as the ratio “exchange after 15 min over exchange after 0 min” (% bound [^3H]GDP-RhoA). To measure the effect of the aptamers on the exchange activity, a 20-fold molar excess of GST-TRIAPs was pre-incubated with GEFD2 (or GEFD1) for 30 min on ice before the exchange assay was carried out. For each experiment, data were obtained in triplicate. […]
Molecule,"Effect on LPA-induced neurite retraction ([1]; 10 μM LPA, 15 min)",percentage of transfected cells with neurites after LPA addition ([1]; 15 min after 10 μM LPA),Effect on TrioGEFD1 exchange activity on RhoG (TrioGEFD1),Effect on TrioGEFD1 exchange activity on RhoG (TrioGEFD1; listed as GST-TRIAPα),in vitro GEF assay (inhibition) (TrioGEFD1; RhoGEF TrioDH1PH1)
"AREGADGAICGYNLATLVMLGPSERVFCPLCEPCSSDIYELM [TRIPα, 42-amino acid peptide corresponding to the variable region of TRIAPα]",prevents serum- and LPA-induced neurite retraction; also recorded: also inhibited LPA-mediated neurite collapse,more than 37%,–,–,–
TRIAPα: aptamer of 154 amino acids: variable region of 42 amino acids inserted into the thioredoxin protein; tested as GST fusion (protein) MSDKIIHLTDDSFDTDVLKADGAILVDFWAEWCGPAREGADGAICGYNLATLVMLGPSERVFCPLCEPCSSDIYELMGPCKMIAPILDEIADEYQGKLTVAKLNIDQNPGTAPKYGIRGIPTLLLFKNGEVASATKVGALSKGQLKEFLDANLA,–,–,has no effect,did not block,−−^2
